# The RNAGym collection of RNA variant scans (doi:10.1021/acssynbio.7b00057)
# B1: Pistol ribozyme (parent)
# chain: GGGUCGUUGUUCCAUAAUCGCGUGGAUAUGGCACGCAAGUUUCUACCGGGCACCGUAAAUGUCCGACUGGAGCCGUUCGGGCGGCUAUAAACAGACCUCAGGCCCGAAGCGUGGCGGCACCUGCCGCCGGUGGUAAAAAAGAUCGGAAGAGCACACGUCU
# Variants of: B1
# Test: aptazyme ON/OFF ratio, guanine; higher = stronger switching; co-transcriptional cleavage with and without guanine
row,Variant,aptazyme ON/OFF ratio
1,GGGUCGCCCAGCAAUAAUCGCGUGGAUAUGGCACGCAAGUUUCUACCGGGCACCGUAAAUGUCCGACUGGAGCCGUUCGGGCGGCUAUAAACAGACCUCAGGCCCGAAGCGUGGCGGCACCUGCCGCCGGUGGUAAAAAAGAUCGGAAGAGCACACGUCU,1.13
2,GGGUCGCCCAGCGAUAAUCGCGUGGAUAUGGCACGCAAGUUUCUACCGGGCACCGUAAAUGUCCGACUGGAGCCGUUCGGGCGGCUAUAAACAGACCUCAGGCCCGAAGCGUGGCGGCACCUGCCGCCGGUGGUAAAAAAGAUCGGAAGAGCACACGUCU,1.14
3,GGGUCGCCCAGCUAUAAUCGCGUGGAUAUGGCACGCAAGUUUCUACCGGGCACCGUAAAUGUCCGACUGGAGCCGUUCGGGCGGCUAUAAACAGACCUCAGGCCCGAAGCGUGGCGGCACCUGCCGCCGGUGGUAAAAAAGAUCGGAAGAGCACACGUCU,1.17
4,GGGUCGCCCCUAAAUAAUCGCGUGGAUAUGGCACGCAAGUUUCUACCGGGCACCGUAAAUGUCCGACUGGAGCCGUUCGGGCGGCUAUAAACAGACCUCAGGCCCGAAGCGUGGCGGCACCUGCCGCCGGUGGUAAAAAAGAUCGGAAGAGCACACGUCU,1.06
5,GGGUCGCCCCUAUAUAAUCGCGUGGAUAUGGCACGCAAGUUUCUACCGGGCACCGUAAAUGUCCGACUGGAGCCGUUCGGGCGGCUAUAAACAGACCUCAGGCCCGAAGCGUGGCGGCACCUGCCGCCGGUGGUAAAAAAGAUCGGAAGAGCACACGUCU,1.1
6,GGGUCGCCCCUAGAUAAUCGCGUGGAUAUGGCACGCAAGUUUCUACCGGGCACCGUAAAUGUCCGACUGGAGCCGUUCGGGCGGCUAUAAACAGACCUCAGGCCCGAAGCGUGGCGGCACCUGCCGCCGGUGGUAAAAAAGAUCGGAAGAGCACACGUCU,1.07
7,GGGUCGCCCCUGGAUAAUCGCGUGGAUAUGGCACGCAAGUUUCUACCGGGCACCGUAAAUGUCCGACUGGAGCCGUUCGGGCGGCUAUAAACAGACCUCAGGCCCGAAGCGUGGCGGCACCUGCCGCCGGUGGUAAAAAAGAUCGGAAGAGCACACGUCU,1.04
8,GGGUCGCCCCUGAAUAAUCGCGUGGAUAUGGCACGCAAGUUUCUACCGGGCACCGUAAAUGUCCGACUGGAGCCGUUCGGGCGGCUAUAAACAGACCUCAGGCCCGAAGCGUGGCGGCACCUGCCGCCGGUGGUAAAAAAGAUCGGAAGAGCACACGUCU,1.16
9,GGGUCGCCCCUGUAUAAUCGCGUGGAUAUGGCACGCAAGUUUCUACCGGGCACCGUAAAUGUCCGACUGGAGCCGUUCGGGCGGCUAUAAACAGACCUCAGGCCCGAAGCGUGGCGGCACCUGCCGCCGGUGGUAAAAAAGAUCGGAAGAGCACACGUCU,1.04
10,GGGUCGCCCCUUAAUAAUCGCGUGGAUAUGGCACGCAAGUUUCUACCGGGCACCGUAAAUGUCCGACUGGAGCCGUUCGGGCGGCUAUAAACAGACCUCAGGCCCGAAGCGUGGCGGCACCUGCCGCCGGUGGUAAAAAAGAUCGGAAGAGCACACGUCU,1.1
11,GGGUCGCCCCUCCAUAAUCGCGUGGAUAUGGCACGCAAGUUUCUACCGGGCACCGUAAAUGUCCGACUGGAGCCGUUCGGGCGGCUAUAAACAGACCUCAGGCCCGAAGCGUGGCGGCACCUGCCGCCGGUGGUAAAAAAGAUCGGAAGAGCACACGUCU,3.53
12,GGGUCGCCCCUUCAUAAUCGCGUGGAUAUGGCACGCAAGUUUCUACCGGGCACCGUAAAUGUCCGACUGGAGCCGUUCGGGCGGCUAUAAACAGACCUCAGGCCCGAAGCGUGGCGGCACCUGCCGCCGGUGGUAAAAAAGAUCGGAAGAGCACACGUCU,1.94
13,GGGUCGCCCCUGCAUAAUCGCGUGGAUAUGGCACGCAAGUUUCUACCGGGCACCGUAAAUGUCCGACUGGAGCCGUUCGGGCGGCUAUAAACAGACCUCAGGCCCGAAGCGUGGCGGCACCUGCCGCCGGUGGUAAAAAAGAUCGGAAGAGCACACGUCU,1.14
14,GGGUCGCCCCUACAUAAUCGCGUGGAUAUGGCACGCAAGUUUCUACCGGGCACCGUAAAUGUCCGACUGGAGCCGUUCGGGCGGCUAUAAACAGACCUCAGGCCCGAAGCGUGGCGGCACCUGCCGCCGGUGGUAAAAAAGAUCGGAAGAGCACACGUCU,1.08
15,GGGUCGCCCAGUAAUAAUCGCGUGGAUAUGGCACGCAAGUUUCUACCGGGCACCGUAAAUGUCCGACUGGAGCCGUUCGGGCGGCUAUAAACAGACCUCAGGCCCGAAGCGUGGCGGCACCUGCCGCCGGUGGUAAAAAAGAUCGGAAGAGCACACGUCU,1.15
16,GGGUCGCCCAGUGAUAAUCGCGUGGAUAUGGCACGCAAGUUUCUACCGGGCACCGUAAAUGUCCGACUGGAGCCGUUCGGGCGGCUAUAAACAGACCUCAGGCCCGAAGCGUGGCGGCACCUGCCGCCGGUGGUAAAAAAGAUCGGAAGAGCACACGUCU,1.08
17,GGGUCGCCCAGUUAUAAUCGCGUGGAUAUGGCACGCAAGUUUCUACCGGGCACCGUAAAUGUCCGACUGGAGCCGUUCGGGCGGCUAUAAACAGACCUCAGGCCCGAAGCGUGGCGGCACCUGCCGCCGGUGGUAAAAAAGAUCGGAAGAGCACACGUCU,1.1
18,GGGUCGCCCAGUCAUAAUCGCGUGGAUAUGGCACGCAAGUUUCUACCGGGCACCGUAAAUGUCCGACUGGAGCCGUUCGGGCGGCUAUAAACAGACCUCAGGCCCGAAGCGUGGCGGCACCUGCCGCCGGUGGUAAAAAAGAUCGGAAGAGCACACGUCU,1.05
